Experimental data from patent US20240228604A1 (ALCHEMAB THERAPEUTICS, published 2024).

Tests used:
Experiment in all cases: Retrogenix cell microarray, fixed HEK293 cells
[1] = target: T1, full-length human UNC5D on fixed HEK293 cells (Retrogenix panel) (human, UniProt Q6UXZ4 33-953)
T1 construct: whole, on cells
T1 sequence (looked up): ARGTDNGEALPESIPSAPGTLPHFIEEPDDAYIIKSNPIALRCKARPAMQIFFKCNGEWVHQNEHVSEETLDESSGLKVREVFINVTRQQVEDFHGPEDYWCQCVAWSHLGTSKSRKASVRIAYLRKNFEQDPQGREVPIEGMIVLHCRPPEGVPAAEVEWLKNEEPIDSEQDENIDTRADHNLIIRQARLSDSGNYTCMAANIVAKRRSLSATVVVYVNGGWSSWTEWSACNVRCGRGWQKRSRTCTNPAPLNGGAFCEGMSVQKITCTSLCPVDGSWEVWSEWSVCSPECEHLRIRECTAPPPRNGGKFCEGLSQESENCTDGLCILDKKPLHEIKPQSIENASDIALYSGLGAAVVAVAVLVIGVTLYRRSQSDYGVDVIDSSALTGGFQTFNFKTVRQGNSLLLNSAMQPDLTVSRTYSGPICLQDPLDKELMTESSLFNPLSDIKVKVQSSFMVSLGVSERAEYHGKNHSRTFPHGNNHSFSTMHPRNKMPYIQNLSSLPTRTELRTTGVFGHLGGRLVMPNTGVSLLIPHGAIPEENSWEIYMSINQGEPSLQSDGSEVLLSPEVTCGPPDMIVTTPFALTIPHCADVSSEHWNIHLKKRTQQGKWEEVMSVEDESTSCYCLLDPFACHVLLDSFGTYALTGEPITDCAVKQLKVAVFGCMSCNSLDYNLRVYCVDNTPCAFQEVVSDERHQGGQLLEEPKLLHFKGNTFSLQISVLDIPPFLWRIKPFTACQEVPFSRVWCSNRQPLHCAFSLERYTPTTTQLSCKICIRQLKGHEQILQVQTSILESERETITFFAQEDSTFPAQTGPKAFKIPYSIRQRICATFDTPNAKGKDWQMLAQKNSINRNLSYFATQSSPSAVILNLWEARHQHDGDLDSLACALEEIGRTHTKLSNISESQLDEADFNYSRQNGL

[2] = target: T2, full-length human UNC5A on fixed HEK293 cells (Retrogenix panel) (human, UniProt Q6ZN44 26-842)
T2 construct: whole, on cells
T2 sequence (looked up): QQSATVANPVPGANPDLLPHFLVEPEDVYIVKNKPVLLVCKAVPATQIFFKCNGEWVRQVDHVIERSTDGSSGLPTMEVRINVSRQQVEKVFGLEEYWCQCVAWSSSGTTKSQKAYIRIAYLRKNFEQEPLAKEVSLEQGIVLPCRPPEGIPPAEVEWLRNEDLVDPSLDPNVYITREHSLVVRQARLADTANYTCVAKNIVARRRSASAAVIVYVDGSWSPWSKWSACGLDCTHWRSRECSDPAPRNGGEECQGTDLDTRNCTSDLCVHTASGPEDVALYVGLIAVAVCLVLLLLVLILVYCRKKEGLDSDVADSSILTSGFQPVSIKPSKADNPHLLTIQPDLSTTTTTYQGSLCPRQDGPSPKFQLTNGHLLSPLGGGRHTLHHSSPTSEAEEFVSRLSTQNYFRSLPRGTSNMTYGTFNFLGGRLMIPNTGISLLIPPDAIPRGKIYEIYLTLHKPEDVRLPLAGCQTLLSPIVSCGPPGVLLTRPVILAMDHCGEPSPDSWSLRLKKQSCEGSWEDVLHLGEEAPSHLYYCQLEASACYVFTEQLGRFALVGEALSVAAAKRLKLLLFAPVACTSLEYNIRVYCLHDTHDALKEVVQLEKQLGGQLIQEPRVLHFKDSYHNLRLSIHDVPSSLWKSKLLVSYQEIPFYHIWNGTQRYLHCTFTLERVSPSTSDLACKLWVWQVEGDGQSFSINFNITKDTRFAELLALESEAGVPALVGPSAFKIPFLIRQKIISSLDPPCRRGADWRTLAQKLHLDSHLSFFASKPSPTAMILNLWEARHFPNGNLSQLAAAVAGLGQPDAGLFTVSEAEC

[3] = target: T3, full-length human DCC on fixed HEK293 cells (Retrogenix panel) (human, UniProt P43146 26-1447)
T3 construct: whole, on cells
T3 sequence (P43146 26-1447): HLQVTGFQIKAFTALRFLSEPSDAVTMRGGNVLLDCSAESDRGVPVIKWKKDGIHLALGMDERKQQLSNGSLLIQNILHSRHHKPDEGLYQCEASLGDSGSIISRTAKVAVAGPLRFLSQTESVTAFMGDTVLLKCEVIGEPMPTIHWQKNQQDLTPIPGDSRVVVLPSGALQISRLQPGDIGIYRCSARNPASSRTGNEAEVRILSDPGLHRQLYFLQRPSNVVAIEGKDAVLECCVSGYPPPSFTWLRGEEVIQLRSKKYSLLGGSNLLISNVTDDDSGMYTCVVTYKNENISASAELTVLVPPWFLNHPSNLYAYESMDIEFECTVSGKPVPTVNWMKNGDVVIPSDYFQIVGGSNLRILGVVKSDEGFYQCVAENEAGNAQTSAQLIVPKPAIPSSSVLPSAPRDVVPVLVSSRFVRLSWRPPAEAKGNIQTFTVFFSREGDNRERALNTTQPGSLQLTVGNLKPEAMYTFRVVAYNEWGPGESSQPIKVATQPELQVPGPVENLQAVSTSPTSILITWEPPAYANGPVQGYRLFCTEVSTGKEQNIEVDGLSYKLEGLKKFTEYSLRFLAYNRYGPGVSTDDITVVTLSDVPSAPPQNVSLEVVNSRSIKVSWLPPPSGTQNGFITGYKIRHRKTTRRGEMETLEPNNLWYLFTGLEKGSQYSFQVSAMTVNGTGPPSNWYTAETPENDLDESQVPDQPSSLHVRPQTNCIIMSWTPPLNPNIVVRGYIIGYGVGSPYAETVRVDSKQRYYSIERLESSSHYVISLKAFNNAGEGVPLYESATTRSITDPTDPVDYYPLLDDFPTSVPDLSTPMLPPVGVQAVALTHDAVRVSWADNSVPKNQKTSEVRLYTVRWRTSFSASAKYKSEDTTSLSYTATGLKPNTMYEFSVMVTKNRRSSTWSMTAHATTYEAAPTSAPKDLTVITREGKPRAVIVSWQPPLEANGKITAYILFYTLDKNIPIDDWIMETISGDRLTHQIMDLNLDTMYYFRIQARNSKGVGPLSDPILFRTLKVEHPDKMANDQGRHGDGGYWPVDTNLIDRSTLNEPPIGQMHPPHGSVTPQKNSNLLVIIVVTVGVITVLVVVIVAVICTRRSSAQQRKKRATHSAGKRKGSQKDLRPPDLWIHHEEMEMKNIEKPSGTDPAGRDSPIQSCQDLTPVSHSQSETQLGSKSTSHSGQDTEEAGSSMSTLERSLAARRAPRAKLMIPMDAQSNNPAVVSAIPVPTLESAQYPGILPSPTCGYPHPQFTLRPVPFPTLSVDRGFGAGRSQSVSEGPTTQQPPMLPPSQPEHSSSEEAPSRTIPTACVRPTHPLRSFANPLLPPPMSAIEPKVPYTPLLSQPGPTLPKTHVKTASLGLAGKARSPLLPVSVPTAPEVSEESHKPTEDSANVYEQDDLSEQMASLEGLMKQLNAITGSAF

[4] = target: T4, full-length human UNC5B on fixed HEK293 cells (Retrogenix panel) (human, UniProt Q8IZJ1 27-945)
T4 construct: whole, on cells

[5] = target: T5, full-length human DSCAM on fixed HEK293 cells (Retrogenix panel) (human, UniProt O60469 18-2012)
T5 construct: whole, on cells
T5 sequence (O60469 18-2012): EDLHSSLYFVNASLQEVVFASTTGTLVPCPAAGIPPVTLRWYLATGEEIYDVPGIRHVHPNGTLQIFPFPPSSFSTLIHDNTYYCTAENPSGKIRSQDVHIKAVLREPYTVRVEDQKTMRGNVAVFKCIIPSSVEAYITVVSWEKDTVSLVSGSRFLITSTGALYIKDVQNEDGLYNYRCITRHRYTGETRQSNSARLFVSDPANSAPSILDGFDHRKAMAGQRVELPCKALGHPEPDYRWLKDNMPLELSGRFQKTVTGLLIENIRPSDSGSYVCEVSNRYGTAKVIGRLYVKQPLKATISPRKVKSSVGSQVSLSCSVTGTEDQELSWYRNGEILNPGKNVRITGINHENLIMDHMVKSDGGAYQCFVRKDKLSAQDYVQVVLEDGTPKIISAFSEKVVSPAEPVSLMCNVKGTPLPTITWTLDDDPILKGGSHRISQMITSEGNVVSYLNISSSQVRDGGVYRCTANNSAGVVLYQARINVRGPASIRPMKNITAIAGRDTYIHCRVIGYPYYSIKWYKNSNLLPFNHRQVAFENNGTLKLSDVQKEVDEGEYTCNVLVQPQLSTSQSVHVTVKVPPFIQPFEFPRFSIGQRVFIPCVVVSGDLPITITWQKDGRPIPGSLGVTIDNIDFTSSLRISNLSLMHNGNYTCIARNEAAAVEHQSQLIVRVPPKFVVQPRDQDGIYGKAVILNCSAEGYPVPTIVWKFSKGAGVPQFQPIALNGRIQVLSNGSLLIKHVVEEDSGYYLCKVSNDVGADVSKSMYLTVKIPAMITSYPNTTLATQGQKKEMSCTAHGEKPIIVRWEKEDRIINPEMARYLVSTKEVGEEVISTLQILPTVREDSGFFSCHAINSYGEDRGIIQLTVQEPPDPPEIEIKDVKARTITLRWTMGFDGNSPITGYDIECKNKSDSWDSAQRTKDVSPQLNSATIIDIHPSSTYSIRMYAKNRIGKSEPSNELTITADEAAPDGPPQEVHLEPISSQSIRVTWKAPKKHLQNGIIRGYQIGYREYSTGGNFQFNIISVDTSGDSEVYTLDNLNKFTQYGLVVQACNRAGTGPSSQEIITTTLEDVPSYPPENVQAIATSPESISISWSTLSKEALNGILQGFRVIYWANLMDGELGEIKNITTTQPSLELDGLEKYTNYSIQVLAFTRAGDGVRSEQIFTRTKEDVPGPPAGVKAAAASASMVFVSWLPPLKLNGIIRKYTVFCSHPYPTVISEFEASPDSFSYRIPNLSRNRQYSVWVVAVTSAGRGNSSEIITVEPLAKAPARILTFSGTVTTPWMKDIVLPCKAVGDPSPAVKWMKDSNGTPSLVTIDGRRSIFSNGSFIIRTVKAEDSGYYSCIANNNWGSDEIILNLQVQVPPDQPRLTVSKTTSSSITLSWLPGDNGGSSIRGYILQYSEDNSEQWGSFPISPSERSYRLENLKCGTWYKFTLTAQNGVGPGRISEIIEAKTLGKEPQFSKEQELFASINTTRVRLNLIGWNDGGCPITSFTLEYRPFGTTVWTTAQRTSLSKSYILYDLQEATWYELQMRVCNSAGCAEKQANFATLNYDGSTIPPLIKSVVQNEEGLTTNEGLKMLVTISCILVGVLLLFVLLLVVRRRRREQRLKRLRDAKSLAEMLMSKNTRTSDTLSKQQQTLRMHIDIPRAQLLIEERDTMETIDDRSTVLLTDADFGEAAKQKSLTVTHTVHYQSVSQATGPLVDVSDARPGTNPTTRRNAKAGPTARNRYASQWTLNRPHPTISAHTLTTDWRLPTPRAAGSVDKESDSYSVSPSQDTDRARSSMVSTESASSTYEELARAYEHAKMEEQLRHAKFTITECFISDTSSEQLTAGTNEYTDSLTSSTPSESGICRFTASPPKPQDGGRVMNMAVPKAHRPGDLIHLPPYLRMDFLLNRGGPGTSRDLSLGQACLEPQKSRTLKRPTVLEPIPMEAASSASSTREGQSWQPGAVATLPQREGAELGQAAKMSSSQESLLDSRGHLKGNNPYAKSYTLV

Measured: binding result

B1: ATL_0006178 (antibody, IgG1, V domains shown)
VH: QVQLQESGPGLVKPSETLSLTCTVSGGSISSYFWSWIRQPPGKGLEWIGYIHYSGTTNQNPSLKSRVTISVDKSKNQFSLKLSSVTAADTAVYYCARGRGMATLPFDYWGQGTLVTVSS
VL: not shown
notes: Combination variant of ATL_5262 (T82K, Q67 kept, N58Y); also called ATL_6178; ATL6178
no binding: all assays above
